Reference: patent publication US5847088A, “Antibodies specific for platelet-activating factor acetylhydrolase” (ICOS Corporation, priority 1995, dated 1998)

Experiments:
PAF-induced foot edema = test: Rat foot edema model, PAF-induced; assay type: in vivo
Method: (§1) Six to eight-week-old female Long Evans rats (Charles River, Wilmington, Mass.), weighing 180-200 grams, were used for all experiments. Prior to experimental manipulations, animals were anesthetized with a mixture of the anesthetics Ketaset (Fort Dodge Laboratories, Fort Dodge, Iowa), Rompun (Miles, Shawnee Mission, Kans.), and Ace Promazine (Aveco, Fort Dodge, Iowa) administered subcutaneously at approximately 2.5 mg Ketaset, 1.6 mg Rompun, 0.2 mg Ace Promazine per animal per dose. Edema was induced in the foot by administration of either PAF or zymosan as follows. PAF (Sigma #P-1402) was freshly prepared for each experiment from a 19.1 mM stock solution stored in chloroform/methanol (9:1) at -20° C. Required volumes were dried down under N2, diluted 1:1000 in a buffer containing 150 mM NaCl, 10 mM Tris pH 7.5, and 0.25% BSA, and sonicated for five minutes. Animals received 50 μl PAF (final dose of 0.96 nmoles) subcutaneously between the hind foot pads, and edema was assessed after 1 hour and again after 2 hours in some experiments. Zymosan A (Sigma #A-8800) was freshly prepared for each experiment as a suspension of 10 mg/ml in PBS. Animals received 50 μl of zymosan (final dose of 500 μg) subcutaneously between the hind foot pads and edema was assessed after 2 hours.
Edema was quantitated by measuring the foot volume immediately prior to administration of PAF or zymosan and at indicated time point post-challenge with PAF or zymosan. Edema is expressed as the increase in foot volume in milliliters. Volume displacement measurements were made on anesthetized animals using a plethysmometer (UGO Basile, model #7150) which measures the displaced water volume of the immersed foot. […] Repeated measurements of the same foot using this technique indicate the precision to be within 5%.
PAF-AH was injected locally between the foot pads, or systematically by IV injection in the tail vein. For local administration rats received 100 μl PAF-AH (4000-6000 U/ml) delivered subcutaneously between the right hind foot pads. Left feet served as controls by administration of 100 μl carrier (buffered salt solution). For systemic administration of PAF-AH, rats received the indicated units of PAF-AH in 300 μl of carrier administered IV in the tail vein. Controls received the appropriate volume of carrier IV in the tail vein.

zymosan A-induced edema = test: Rat foot edema model, zymosan A-induced; assay type: in vivo; conditions: 2000 U IV 15 minutes before zymosan A, 2 hours
Method: as §1, with “PAF (Sigma #P-1402) was freshly prepared for each experiment from a 19.1 mM stock solution stored in chloroform/methanol (9:1) at -20° C. Required volumes were dried down under N2, diluted 1:1000 in a buffer containing 150 mM NaCl, 10 mM Tris pH 7.5, and 0.25% BSA, and sonicated for five minutes.” left out, “Zymosan A (Sigma #A-8800) was freshly prepared for each experiment as a suspension of 10 mg/ml in PBS.” left out
Edema was quantitated by measuring the foot volume immediately prior to administration of PAF or zymosan and at indicated time point post-challenge with PAF or zymosan. Edema is expressed as the increase in foot volume in milliliters. […]
Rats (N=4 per group) were pretreated IV with either PAF-AH (2000 U in 300 μl carrier) or carrier alone. Fifteen minutes after pretreatment, groups received either PAF or zymosan A, and foot volume was assessed after 1 and 2 hours, respectively.

[1] = Plasma PAF-AH activity in rats of the NEC experiments; assay type: in vivo, rat
Method: The plasma PAF-AH activities were also determined in the rats utilized in the experiment described above. PAF-AH activity was determined as follows. Prior to the tail vein injection, blood samples were obtained. Subsequently blood samples were obtained from the vena cava just prior to the injection of PAF and at the time of sacrifice. Approximately 50 μl of blood was collected in heparinized capillaries. The plasma was obtained following centrifugation (980×g for 5 minutes). The enzyme was assayed as previously described by Yasuda and Johnston, Endocrinology, 130:708-716 (1992).
In order to determine if the protection against NEC in rats was dose dependent, animals were treated with increasing doses of PAF-AH 15 minutes prior to PAF administration. Initially, PAF-AH, ranging from 25.5 to 25,500 units were administered into the tail vein of rats. PAF (0.4 μg in 0.2 ml of BSA-saline) was subsequently injected into the abdominal aorta 15 minutes after the administration of PAF-AH. The small intestine was removed and examined for NEC development 2 hours after PAF administration. Plasma PAF-AH activity was determined prior to the exogenous administration of the enzyme, and 15 minutes and 21/4 hours after PAF-AH administration. The results are the mean of 2-5 animals in each group.

PAF mediated lung injury = test: Guinea pig model of ARDS (PAF infusion, BAL protein); assay type: in vivo
Method: Based on the above observations, an ARDS model in guinea pigs was developed. A cannula is placed into the jugular vein of anaesthetized male Hartly guinea pigs (approximately 350-400 grams) and PAF diluted in a 500 μl volume of phosphate buffered saline with 0.25% bovine serum albumin as a carrier (PBS-BSA) is infused over a 15 minute period of time at a total dosage ranging from 100-400 ng/kg. At various intervals following PAF infusion, animals are sacrificed and lung tissue is collected. In guinea pigs infused with PAF, dose dependent lung damage and inflammation is clearly evident by 15 minutes and continues to be present at 60 minutes. Neutrophils and red blood cells are present in the alveolar spaces of PAF treated guinea pigs but absent in control or sham infused animals. Evidence of epithelial cell damage is also evident and reminiscent of hyaline membrane formation in human ARDS patients.
Groups of guinea pigs were pretreated with either PAF-AH (2000 units in 500 μl) or 500 μl of the PAF-AH buffer only. Fifteen minutes later these guinea pigs were infused with 400 ng/kg PAF in a 500 μl volume, infused over a 15 minute period. In addition, a sham group of guinea pigs was infused with 500 μl of PBS-BSA. […] To determine protein concentration in the BAL, samples were diluted 1:10 in saline and the OD 280 was determined.

[2] = 25,500 units IV, 21/4 hours after injection

B1: PAF-AH: Recombinant human plasma platelet-activating factor acetylhydrolase (beginning at Ile42 of SEQ ID NO:8) expressed in E. coli (protein, UniProt Q13093 22-441, looked up)
Platelet-activating factor …: FDWQYINPVAHMKSSAWVNKIQVLMAAASFGQTKIPRGNGPYSVGCTDLMFDHTNKGTFLRLYYPSQDNDRLDTLWIPNKEYFWGLSKFLGTHWLMGNILRLLFGSMTTPANWNSPLRPGEKYPLVVFSHGLGAFRTLYSAIGIDLASHGFIVAAVEHRDRSASATYYFKDQSAAEIGDKSWLYLRTLKQEEETHIRNEQVRQRAKECSQALSLILDIDHGKPVKNALDLKFDMEQLKDSIDREKIAVIGHSFGGATVIQTLSEDQRFRCGIALDAWMFPLGDEVYSRIPQPLFFINSEYFQYPANIIKMKKCYSPDKERKMITIRGSVHQNFADFTFATGKIIGHMLKLKGDIDSNVAIDLSNKASLAFLQKHLGLHKDFDQWDCLIEGDDENLIPGTNINTTNQHIMLQNSSGIEKYN
- mean increase in volume (foot edema) (PAF-induced foot edema; 2000 U IV 15 minutes before PAF, 1 hour, ± SEM (FIG. 6)): 0.08 ± 0.02 mL
- mean volume increase (foot edema) (PAF-induced foot edema; 2000 U IV 15 minutes prior to PAF, two hours after challenge, ± SEM): 0.10 mL
- ID50 (PAF-induced foot edema; IV 15 minutes prior to PAF, edema after 1 hour): 40-80 U per rat
- IV doses found to dramatically reduce PAF mediated inflammation (PAF-induced foot edema; IV dosing studies): 160-2000 U/rat
- PAF-induced edema, PAF-AH versus PAF antagonists (PAF-induced foot edema; PAF-AH 2000 U IV, CV3988 or Alprazolam 2 mg IP (FIG. 10)): reduction in PAF-induced edema beyond that afforded by the established PAF antagonists
- plasma concentration predicted to block PAF-elicited edema (PAF-induced foot edema; calculated from plasma volume of 180-200 gram rats): 25-40 U/ml
- increase in foot volume (PAF-induced foot edema; local subcutaneous 100 μl PAF-AH (4000-6000 U/ml), immediate PAF challenge, 1 hour post-challenge, mean ± SEM): 0.08 mL
- duration of protection from PAF induced edema (PAF-induced foot edema; single 2000 U IV dose): at least 24 hours
- effect on zymosan induced edema (zymosan A-induced edema): failed to block
- plasma PAF-AH activity after 15 minutes ([1]; 2040 units IV): 363 units per ml of plasma
- increase of plasma PAF-AH activity over basal levels ([1]; 2040 units IV, 15 minutes): five-fold increase over basal levels
- plasma PAF-AH activity at time of sacrifice, groups 2 and 4 ([1]; 25,500 units IV, 21/4 hours after PAF-AH injection): 1855±257 units
- plasma PAF-AH activity at time of sacrifice, Group 2 [1, 2]: 1771±308
- plasma PAF-AH activity at time of sacrifice, Group 4 [1, 2]: 1939±478
- plasma PAF-AH activity after 15 minutes, group 2 ([1]; 25,500 units IV, BSA-saline group): 2249±341 units (1 unit equals 1 nmoles×min^-1 ×ml^-1 plasma)
- plasma PAF-AH activity after 15 minutes, group 4 ([1]; 25,500 units IV, PAF group): 2494±623 units (1 unit equals 1 nmoles×min^-1 ×ml^-1 plasma)
- resultant plasma enzyme activity ([1]; less than 1,020 total units administered): ≤ 160
- BAL fluid protein concentration (PAF mediated lung injury; 2000 units 15 minutes before 400 ng/kg PAF infusion): 1.13 ± 0.25 mg/mL
- protection against PAF mediated lung injury (PAF mediated lung injury; 2000 units pretreatment): completely protect
